Test results taken from publication PMC4734682, “Evidence for the Nucleo-Apical Shuttling of a Beta-Catenin Like Plasmodium falciparum Armadillo Repeat Containing Protein” (PLoS ONE, 2016).

What was measured:
[1] = molecular target: T1, rPfARO (Plasmodium falciparum 3D7) (UniProt C0H4A5); assay: EMSA; details: EMSA: 10 mM Tris-Cl pH 7.5, 100 mM KCl, 5 mM MgCl2, 2 mM DTT, 6% glycerol, 50 ug/ml BSA, 25 ul; temperature not stated
T1 sequence: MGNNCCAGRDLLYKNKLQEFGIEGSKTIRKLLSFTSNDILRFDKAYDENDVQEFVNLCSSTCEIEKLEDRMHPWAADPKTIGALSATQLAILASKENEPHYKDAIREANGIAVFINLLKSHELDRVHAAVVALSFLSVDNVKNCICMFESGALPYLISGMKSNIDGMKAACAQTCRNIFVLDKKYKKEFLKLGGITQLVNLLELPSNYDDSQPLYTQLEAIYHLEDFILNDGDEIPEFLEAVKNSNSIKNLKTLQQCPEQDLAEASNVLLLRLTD

[2] = molecular target: T1, rPfARO (Plasmodium falciparum 3D7); assay: competition; details: EMSA: 10 mM Tris-Cl pH 7.5, 100 mM KCl, 5 mM MgCl2, 2 mM DTT, 6% glycerol, 50 ug/ml BSA, 25 ul; temperature not stated
[3] = molecular target: the molecule itself; assay: non-reducing SDS-PAGE; purified rPfARO run under non-reducing conditions, stained gel and anti-His immunoblot; ~60 kDa dimer band beside the ~32 kDa monomer; dimer band diminished progressively with increasing DTT; both bands confirmed as PfARO by LC-MS
[4] = molecular target: the molecule itself; assay: non-reducing SDS-PAGE; immunoblot of parasite lysate under non-reducing conditions with anti-PfARO antibodies; ~60 kDa dimer beside the ~32 kDa monomer

“TTTTATATCATTTAATTCATATGTCTTTTCTTTCTTCTTCGCCTTCAGATCATAAGGATCTTGGACCTTTTTTCTTTCCTTCTTTTCAGAACACAAAGATGTACAACTAAAAGCATTGTCTGTATATGTTGAACGATTACTCTTGAAGGATCCCG (double strand) [AT-rich PfgyrA DNA]” was tested, and the binding [1] was “binds” and the binding [2] was “binds”.

B1: Recombinant PfARO (P. falciparum Armadillo Repeats Only protein), full length, C-terminal 6-His tag (natural protein, P. falciparum (strain 3D7), UniProt C0H4A5 1-275, looked up)
chain: T1 sequence
notes: PfARO, Plasmodium falciparum strain 3D7, PlasmoDB PF3D7_0414900; full length open reading frame of 275 amino acids amplified from 3D7 cDNA; putative NES at residues 198-204 (LVNLLEL); nine cysteines; Cloned NdeI/XhoI into pET-24b; also called rPfARO; ARM Repeats Only; source: E. coli BL21 (DE3) Codon+, purified (Ni-NTA, size exclusion chromatography on Superdex-200); not shown: His6, C-terminal, …
With B1 the “stoichiometry N” value [3] was 2.

B2: Native PfARO parasite protein (natural protein, UniProt C0H4A5 1-275, looked up)
chain: T1 sequence
notes: PfARO, Plasmodium falciparum strain 3D7, PlasmoDB PF3D7_0414900; native protein detected at ~32 kDa; source: endogenous, P. falciparum 3D7 schizont-stage parasite lysate (detergent based)
In the case of B2, the “stoichiometry N” value [4] is reported as 2.
